Columns and labels:
Test in all cases: EMSA
[1] = tested on: T1, Dcp1 (Saccharomyces cerevisiae); conditions: EMSA: 10 nM Alexa Fluor 647 RPL41A RNA, 300 mM KOAc, 10 mM MES pH 7 or 5.8, 5 mM BME; temperature not given in material
T1 sequence: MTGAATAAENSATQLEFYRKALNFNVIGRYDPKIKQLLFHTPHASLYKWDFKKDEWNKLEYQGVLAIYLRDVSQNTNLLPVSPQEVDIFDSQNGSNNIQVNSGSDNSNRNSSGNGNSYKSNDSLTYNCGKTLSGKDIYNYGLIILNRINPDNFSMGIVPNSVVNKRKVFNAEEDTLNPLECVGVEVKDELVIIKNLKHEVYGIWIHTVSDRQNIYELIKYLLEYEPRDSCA

[2] = tested on: T2, Dcp2 (Saccharomyces cerevisiae); conditions: EMSA: 10 nM Alexa Fluor 647 RPL41A RNA, 300 mM KOAc, 10 mM MES pH 7 or 5.8, 5 mM BME, temperature not given in material
T2 sequence: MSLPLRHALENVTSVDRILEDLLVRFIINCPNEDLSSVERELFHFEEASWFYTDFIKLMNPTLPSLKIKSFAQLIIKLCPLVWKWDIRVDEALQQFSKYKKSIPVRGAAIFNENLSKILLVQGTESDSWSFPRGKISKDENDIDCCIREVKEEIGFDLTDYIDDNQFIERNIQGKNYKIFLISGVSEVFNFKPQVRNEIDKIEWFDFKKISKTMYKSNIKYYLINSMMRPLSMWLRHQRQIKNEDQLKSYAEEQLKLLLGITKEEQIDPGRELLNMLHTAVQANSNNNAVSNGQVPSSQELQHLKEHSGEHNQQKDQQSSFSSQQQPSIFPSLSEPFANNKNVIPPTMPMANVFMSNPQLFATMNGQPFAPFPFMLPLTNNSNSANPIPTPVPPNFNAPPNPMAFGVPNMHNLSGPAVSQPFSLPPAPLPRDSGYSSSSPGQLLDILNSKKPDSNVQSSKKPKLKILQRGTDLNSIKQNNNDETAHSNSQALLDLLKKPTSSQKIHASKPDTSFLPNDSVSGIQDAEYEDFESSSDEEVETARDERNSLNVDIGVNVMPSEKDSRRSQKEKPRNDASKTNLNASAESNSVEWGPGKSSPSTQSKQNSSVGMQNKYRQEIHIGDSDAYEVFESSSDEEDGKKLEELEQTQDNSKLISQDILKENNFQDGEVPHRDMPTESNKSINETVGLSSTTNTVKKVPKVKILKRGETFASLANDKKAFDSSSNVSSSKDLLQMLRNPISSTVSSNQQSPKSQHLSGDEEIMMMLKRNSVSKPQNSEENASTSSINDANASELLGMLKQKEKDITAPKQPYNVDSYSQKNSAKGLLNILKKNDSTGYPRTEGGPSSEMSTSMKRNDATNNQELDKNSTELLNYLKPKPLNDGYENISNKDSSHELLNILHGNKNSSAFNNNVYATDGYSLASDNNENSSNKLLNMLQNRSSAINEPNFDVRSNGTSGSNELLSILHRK

[3] = tested on: T3, Dcp2 1-300 (Saccharomyces cerevisiae); conditions: EMSA: 10 nM Alexa Fluor 647 RPL41A RNA, 300 mM KOAc, 10 mM MES pH 7 or 5.8, 5 mM BME; temperature not given in material
T3 sequence: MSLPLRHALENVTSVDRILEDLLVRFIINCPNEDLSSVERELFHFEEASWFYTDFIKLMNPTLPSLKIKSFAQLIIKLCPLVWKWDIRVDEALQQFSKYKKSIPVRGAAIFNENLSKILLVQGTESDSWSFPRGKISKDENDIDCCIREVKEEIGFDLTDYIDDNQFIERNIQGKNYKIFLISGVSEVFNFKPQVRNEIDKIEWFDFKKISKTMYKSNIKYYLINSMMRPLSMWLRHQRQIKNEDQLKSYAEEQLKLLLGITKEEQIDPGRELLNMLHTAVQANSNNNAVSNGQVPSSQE

[4] = tested on: Dcp2 H237A (Saccharomyces cerevisiae); conditions: pH 5.8; EMSA: 10 nM Alexa Fluor 647 RPL41A RNA, 300 mM KOAc, 10 mM MES pH 7 or 5.8, 5 mM BME; temperature not given in material

**Q.** With RPL41A RNA (60 nt) as the substance, how does the Kd [1] read?
**A.** The Kd was over 20 µM.

**Q.** What about the binding signal (fold tighter at pH 5.8 than at pH 7) [2] of the same substance?
**A.** Its binding signal (fold tighter at pH 5.8 than at pH 7) is over 16.

**Q.** And the Kd [3]?
**A.** Its Kd is over 20 µM.

**Q.** And the binding signal (fold lower affinity than wild type) [4]?
**A.** The binding signal (fold lower affinity than wild type) was 2.

From paper PMC10083542
